Experiments:
Assay in all cases: malachite green phosphate release assay, Michaelis-Menten fit
Type in all cases: biochemical, Arabidopsis thaliana
[1] = substrate: N[C@H](COP(=O)(O)O)Cc1c[nH]cn1; details: 50 mM Tris-Cl pH 7.5, 2 mM MgCl2, 22°C in table note (25°C in methods), substrate 0-1 mM
Excerpt: malachite green phosphate release assay, Michaelis-Menten fit on IMPL2 (AtIMPL2)

[2] = substrate: O=P(O)(O)O[C@@H]1[C@H](O)[C@H](O)[C@@H](O)[C@H](O)[C@H]1O; details: 50 mM Tris pH 9, 3 mM MgCl2, 22°C in table note (25°C in methods), substrate 0-1 mM, substrate inhibition above 1 mM
Excerpt: (§1) malachite green phosphate release assay, Michaelis-Menten fit on IMPL1 (AtIMPL1)

[3] = substrate: O=P(O)(O)O[C@H]1O[C@H](CO)[C@H](O)[C@H](O)[C@H]1O; details: 50 mM Tris pH 9, 3 mM MgCl2, 22°C in table note (25°C in methods), substrate 0-1 mM, value approximated
Excerpt: as §1

| Protein | Km [1] [µM] | kcat [1] [s⁻¹] | kcat/Km [1] [M⁻¹ s⁻¹] | Km [2] [µM] | kcat [2] [s⁻¹] | kcat/Km [2] [M⁻¹ s⁻¹] | Km [3] [µM] | kcat [3] [s⁻¹] | kcat/Km [3] [M⁻¹ s⁻¹] |
| --- | --- | --- | --- | --- | --- | --- | --- | --- | --- |
| IMPL2 (AtIMPL2) (Arabidopsis thaliana) (protein, plasmid pAtIMPL2H) LSDTELDRFAAVGNALADASGEVIRKYFRKKFDIVDKDDMSPVTIADQMAEEAMVSIIFQNLPSHAIYGEEKGWRCKEESADYVWVLDPIDGTKSFITGKPVFGTLIALLYKGKPILGLIDQPILKERWIGMNGRRTKLNGEDISTRSCPKLSQAYLYTTSPHLFSEEAEKAYSRVRDKVKVPLYGCDCYAYALLASGFVDLVIESGLKPYDFLALVPVIEGAGGTITDWTGKRFLWEASSSAVATSFNVVAAGDSDIHQQALESLEWH | 180 ± 5 | 1.3 ± 0.2 | 7900 ± 200 | – | – | – | – | – | – |
| IMPL1 (AtIMPL1) (Arabidopsis thaliana) (protein, plasmid pAtIMPL1H) TTGTISPAHLLEVVELAAKTGAEVVMEAVNKPRNITYKGLSDLVTDTDKASEAAILEVVKKNFSDHLILGEEGGIIGDSSSDYLWCIDPLDGTTNFAHGYPSFAVSVGVLYRGNPAAASVVEFVGGPMCWNTRTFSATAGGGALCNGQKIHVSKTDAVERALLITGFGYEHDDAWSTNMELFKEFTDVSRGVRRLGAAAVDMCHVALGIAESYWEYRLKPWDMAAGVLIVEEAGGAVTRMDGGKFSVFDRSVLVSNGVLHPKLLERIAPATENLKSKGIDFSLWFKPEDYHTEL | – | – | – | 180 ± 3 | 0.6 ± 0.1 | 3300 ± 100 | 450 ± 60 | 2.4 ± 1.3 | 5300 ± 500 |

From PMC4288329, “Characterization of the inositol monophosphatase gene family in Arabidopsis” (Frontiers in Plant Science, 2015)
